T1: Recombinant SIVmac239 Nef core domain, residues 96–237
T1 chain: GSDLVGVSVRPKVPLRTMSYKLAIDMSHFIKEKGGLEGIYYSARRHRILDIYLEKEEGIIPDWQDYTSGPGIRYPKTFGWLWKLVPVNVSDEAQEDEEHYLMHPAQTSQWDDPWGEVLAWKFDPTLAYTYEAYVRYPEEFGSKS

One assay addresses SIVmac239 Nef, wild type. Kind of assay: co-immunoprecipitation. Particulars: IP: α-BST2; parent: 0.13.
Turning to “Human tetherin (BST-2) (from UniProt Q10589) insertion of D14DIWK18 from rhesus tetherin into human tetherin (hDDIWK)”, the other: Nef/BST2 band intensity ratio turned out to be 0.65.

The target in a further assay is Rhesus macaque tetherin (BST-2), allele rBST-2.1. Kind of assay: co-immunoprecipitation. Particulars: 293T cells co-transfected; lysates immunoprecipitated with a monoclonal antibody to tetherin; parent: 1.
Turning to “SIVmac239 Nef, wild type M66A; N67A; T68A; P69A; W70A; R71A”, the ratio to parent stood at 0.05.

With “SIVmac239 Nef, wild type M66A; N67A; T68A; P69A; W70A; R71A; I117A; L174A; W175A; N181A; V182A”, the ratio to parent was 0.07.

Another assay has as its target Peptide of the cytoplasmic domain of rhesus macaque tetherin, residues 1–26, biotinylated (rhesus macaque). Kind of assay: SPR; BIAcore 3000, 25°C, PBS with 5 mM DTT; biotinylated tetherin peptides captured (3,000 RU) on neutravidin-coated CM5 chip, Nef proteins flowed at 5 µl/min; equilibrium analysis, apparent Kd.
Conditions: not given
For orientation: Surface plasmon resonance follows binding to a sensor surface in real time, without labels.
Take “Recombinant SIVmac239 Nef core domain, residues 96–237 (domain or fragment)”: the Kd is 401 µM.

The next assay deals with Dynamin 2 fused to GFP (UniProt P50570). Kind of assay: co-IP; 293T co-transfected with Nef constructs and Dyn2-GFP; lysates immunoprecipitated with a mAb to GFP, blots for Nef and GFP; band ratios.
Chain of UniProt P50570 (P50570 whole entry, the tested form may be a part): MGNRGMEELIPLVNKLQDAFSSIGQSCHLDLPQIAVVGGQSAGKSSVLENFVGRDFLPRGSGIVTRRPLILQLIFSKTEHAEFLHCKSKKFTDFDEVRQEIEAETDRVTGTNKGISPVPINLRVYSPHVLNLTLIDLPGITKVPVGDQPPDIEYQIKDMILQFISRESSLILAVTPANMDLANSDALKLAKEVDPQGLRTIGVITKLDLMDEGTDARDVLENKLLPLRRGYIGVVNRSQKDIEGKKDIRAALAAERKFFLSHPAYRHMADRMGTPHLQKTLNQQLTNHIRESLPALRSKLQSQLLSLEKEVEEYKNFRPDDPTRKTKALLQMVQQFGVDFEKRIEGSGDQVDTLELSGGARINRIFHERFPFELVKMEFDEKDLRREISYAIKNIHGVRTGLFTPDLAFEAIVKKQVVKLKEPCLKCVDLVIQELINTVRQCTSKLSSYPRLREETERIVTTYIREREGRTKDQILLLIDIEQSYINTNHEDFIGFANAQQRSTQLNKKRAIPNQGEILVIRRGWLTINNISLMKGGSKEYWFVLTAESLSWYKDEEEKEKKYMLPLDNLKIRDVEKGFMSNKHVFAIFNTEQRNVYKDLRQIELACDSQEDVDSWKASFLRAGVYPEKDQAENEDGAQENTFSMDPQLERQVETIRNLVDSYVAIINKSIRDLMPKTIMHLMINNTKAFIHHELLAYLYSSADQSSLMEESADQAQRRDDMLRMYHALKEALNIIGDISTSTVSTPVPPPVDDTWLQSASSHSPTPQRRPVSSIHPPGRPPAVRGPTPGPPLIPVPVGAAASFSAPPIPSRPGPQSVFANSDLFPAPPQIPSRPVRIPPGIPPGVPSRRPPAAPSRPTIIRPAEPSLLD
Conditions: not given
“SIVmac239 Nef, wild type (natural protein)”: the Dyn2 binding (Nef/dynamin 2 band intensity in IP) was 1.1.

For a further assay, the target named is T1, Recombinant SIVmac239 Nef core domain, …. Kind of assay: SPR. Particulars: chain shown with the change; Nef96–237 at about 650 µM (highest concentration point), peptide on chip; parent: est. 1900; read off a plot.
As to MAPILYDYRKMPMAAAAAEDGDKRCK, the response is 1100 RU.

The assay is the same for the next values; noted with them: chain shown with the change; Nef96–237 at about 650 µM (highest concentration point), peptide on chip; read off a plot.
With MASTSYDYSRVPMDDIWKEDGDKRCK, the response stood at 800 RU.

In a further assay the target is Rhesus macaque tetherin (BST-2), allele rBST-2.1 (rhesus macaque). Kind of assay: co-IP; 293T co-transfected with Nef and tetherin constructs; lysates immunoprecipitated with anti-tetherin mAb 3H4 and protein A beads, blots for Nef and tetherin; band densities by ImageJ.
Conditions: not given
For “SIVmac239 Nef G2A (myristoylation site mutant) (natural protein)”, the BST2 binding (Nef/tetherin band intensity in IP) came out at 0.16.

On to “SIVmac239 Nef with pair-wise alanine substitutions at positions 5–6 (natural protein)”, for which the BST2 binding (Nef/tetherin band intensity in IP) came to 0.18.

As to “SIVmac239 Nef with pair-wise alanine substitutions at positions 60–61 (natural protein)”, the BST2 binding (Nef/tetherin band intensity in IP) stood at 0.7.

Take “SIVmac239 Nef with pair-wise alanine substitutions at positions 64–65 (natural protein)”: the BST2 binding (Nef/tetherin band intensity in IP) stood at 0.54.

“SIVmac239 Nef with pair-wise alanine substitutions at positions 66–67 (natural protein)”: the BST2 binding (Nef/tetherin band intensity in IP) turned out to be 0.18.

In the case of “SIVmac239 Nef with pair-wise alanine substitutions at positions 68–69 (natural protein)”, the BST2 binding (Nef/tetherin band intensity in IP) was found to be 0.14.

“SIVmac239 Nef with pair-wise alanine substitutions at positions 70–71 (natural protein)” came in with a BST2 binding (Nef/tetherin band intensity in IP) of 0.28.

On to “SIVmac239 Nef with pair-wise alanine substitutions at positions 74–75 (natural protein)”, for which the BST2 binding (Nef/tetherin band intensity in IP) was determined as 0.71.

Molecule “SIVmac239 Nef with pair-wise alanine substitutions at positions 82–83 (natural protein)” gave a BST2 binding (Nef/tetherin band intensity in IP) of 1.38.

As to “SIVmac239 Nef with pair-wise alanine substitutions at positions 86–87 (natural protein)”, the BST2 binding (Nef/tetherin band intensity in IP) was 0.47.

“SIVmac239 Nef with pair-wise alanine substitutions at positions 88–89 (natural protein)”: the BST2 binding (Nef/tetherin band intensity in IP) was 0.93.

Take “SIVmac239 Nef with pair-wise alanine substitutions at positions 106–107 (natural protein)”: the BST2 binding (Nef/tetherin band intensity in IP) stood at 0.82.

In turn, “SIVmac239 Nef with pair-wise alanine substitutions at positions 108–109 (natural protein)” registered a BST2 binding (Nef/tetherin band intensity in IP) of 1.87.

In the case of “SIVmac239 Nef with pair-wise alanine substitutions at positions 110–111 (natural protein)”, the BST2 binding (Nef/tetherin band intensity in IP) was determined as 1.29.

The molecule “SIVmac239 Nef with pair-wise alanine substitutions at positions 112–113 (natural protein)” showed a BST2 binding (Nef/tetherin band intensity in IP) of 0.35.

As for “SIVmac239 Nef with pair-wise alanine substitutions at positions 116–117 (natural protein)”, the BST2 binding (Nef/tetherin band intensity in IP) turned out to be 0.16.

The molecule “SIVmac239 Nef with pair-wise alanine substitutions at positions 128–129 (natural protein)” registered a BST2 binding (Nef/tetherin band intensity in IP) of 1.11.

Turning to “SIVmac239 Nef with pair-wise alanine substitutions at positions 130–131 (natural protein)”, the BST2 binding (Nef/tetherin band intensity in IP) was 2.4.

On to “SIVmac239 Nef with pair-wise alanine substitutions at positions 132–133 (natural protein)”, for which the BST2 binding (Nef/tetherin band intensity in IP) stood at 0.79.

Regarding “SIVmac239 Nef with pair-wise alanine substitutions at positions 134–135 (natural protein)”, the BST2 binding (Nef/tetherin band intensity in IP) is 2.58.

Regarding “SIVmac239 Nef with pair-wise alanine substitutions at positions 138–139 (natural protein)”, the BST2 binding (Nef/tetherin band intensity in IP) was found to be 0.84.

The molecule “SIVmac239 Nef with pair-wise alanine substitutions at positions 140–141 (natural protein)” yielded a BST2 binding (Nef/tetherin band intensity in IP) of 1.38.

“SIVmac239 Nef with pair-wise alanine substitutions at positions 142–143 (natural protein)”: the BST2 binding (Nef/tetherin band intensity in IP) was determined as 5.1.

“SIVmac239 Nef with pair-wise alanine substitutions at positions 146–147 (natural protein)” returned a BST2 binding (Nef/tetherin band intensity in IP) of 1.56.

Regarding “SIVmac239 Nef with pair-wise alanine substitutions at positions 152–153 (natural protein)”, the BST2 binding (Nef/tetherin band intensity in IP) was found to be 1.68.

Regarding “SIVmac239 Nef with pair-wise alanine substitutions at positions 156–157 (natural protein)”, the BST2 binding (Nef/tetherin band intensity in IP) worked out at 1.46.

As to “SIVmac239 Nef with pair-wise alanine substitutions at positions 158–159 (natural protein)”, the BST2 binding (Nef/tetherin band intensity in IP) was 0.76.

“SIVmac239 Nef with pair-wise alanine substitutions at positions 160–161 (natural protein)” came in with a BST2 binding (Nef/tetherin band intensity in IP) of 1.64.

Take “SIVmac239 Nef with pair-wise alanine substitutions at positions 164–165 (natural protein)”: the BST2 binding (Nef/tetherin band intensity in IP) stood at 1.34.

In turn, “SIVmac239 Nef with pair-wise alanine substitutions at positions 166–167 (natural protein)” gave a BST2 binding (Nef/tetherin band intensity in IP) of 1.4.

As for “SIVmac239 Nef with pair-wise alanine substitutions at positions 168–169 (natural protein)”, the BST2 binding (Nef/tetherin band intensity in IP) came out at 2.1.

The molecule “SIVmac239 Nef with pair-wise alanine substitutions at positions 170–171 (natural protein)” returned a BST2 binding (Nef/tetherin band intensity in IP) of 2.61.

Molecule “SIVmac239 Nef with pair-wise alanine substitutions at positions 172–173 (natural protein)” had a BST2 binding (Nef/tetherin band intensity in IP) of 1.34.

“SIVmac239 Nef with pair-wise alanine substitutions at positions 174–175 (natural protein)” yielded a BST2 binding (Nef/tetherin band intensity in IP) of 0.52.

“SIVmac239 Nef with pair-wise alanine substitutions at positions 176–177 (natural protein)” registered a BST2 binding (Nef/tetherin band intensity in IP) of 3.17.

For the molecule “SIVmac239 Nef with pair-wise alanine substitutions at positions 181–182 (natural protein)”, the BST2 binding (Nef/tetherin band intensity in IP) stood at 0.23.

Molecule “SIVmac239 Nef with pair-wise alanine substitutions at positions 193–194 (natural protein)” had a BST2 binding (Nef/tetherin band intensity in IP) of 0.22.

On to “SIVmac239 Nef with pair-wise alanine substitutions at positions 195–196 (natural protein)”, for which the BST2 binding (Nef/tetherin band intensity in IP) came out at 0.31.

“SIVmac239 Nef with pair-wise alanine substitutions at positions 199–200 (natural protein)” returned a BST2 binding (Nef/tetherin band intensity in IP) of 0.43.

As for “SIVmac239 Nef with pair-wise alanine substitutions at positions 203–204 (natural protein)”, the BST2 binding (Nef/tetherin band intensity in IP) was determined as 0.74.

Take “SIVmac239 Nef with pair-wise alanine substitutions at positions 205–206 (natural protein)”: the BST2 binding (Nef/tetherin band intensity in IP) is 0.94.

As for “SIVmac239 Nef with pair-wise alanine substitutions at positions 209–210 (natural protein)”, the BST2 binding (Nef/tetherin band intensity in IP) stood at 1.4.

For the molecule “SIVmac239 Nef, wild type (natural protein)”, the BST2 binding (Nef/tetherin band intensity in IP) was found to be 1.

For the origin of these results see paper PMC3708871.
